Test results as given in paper PMC7774954 (2020).
Where no end group is shown, it is not given here. The star is where a group is joined. Biotin = O=C1N[C@H]2[C@H](CS[C@H]2CCCCC(=O)*)N1; TTDS = NCCCOCCOCCOCCCNC(=O)CCC(=O)*

Legend:
MAST2-1 [1] = molecular target: T1, MAST2-1 (human); test: FP
T1 chain: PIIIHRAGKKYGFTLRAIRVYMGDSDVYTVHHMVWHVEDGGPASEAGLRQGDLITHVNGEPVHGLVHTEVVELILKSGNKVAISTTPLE

HTRA1-1 [2] = molecular target: HTRA1-1 (human); test: FP
MAST2-1 [3] = molecular target: T1, MAST2-1; test: FP; competitive FP with fRSK1 tracer
HTRA1-1 [4] = molecular target: HTRA1-1 (human); test: FP; competitive FP with fRSK1 tracer

Sequence of HTRA1-1 (human) (chain, as listed by the source): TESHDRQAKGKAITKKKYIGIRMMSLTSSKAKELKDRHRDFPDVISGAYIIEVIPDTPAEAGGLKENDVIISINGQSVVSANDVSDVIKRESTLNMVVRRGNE

Binder | Kd (MAST2-1 [1]) | Kd (HTRA1-1 [2]) | Kd (MAST2-1 [3]) | Kd (HTRA1-1 [4])
Fluorescein-KLPSTTL [fRSK1] | 6.87 µM | 64.8 µM | – | –
{Biotin-TTDS}-DEDQHTQITKV [PTEN_11] | – | – | 3.14 µM | 45.1 µM
